Source: patent US6709838 (Genentech, dated 2004)

T1: human Ptch-2 (SEQ ID NO:2), overexpressed on transfected human 293 embryonic kidney cells (human, UniProt Q9Y6C5 1-1203)
T1 construct: also called Patched-2; patched-2
T1 sequence: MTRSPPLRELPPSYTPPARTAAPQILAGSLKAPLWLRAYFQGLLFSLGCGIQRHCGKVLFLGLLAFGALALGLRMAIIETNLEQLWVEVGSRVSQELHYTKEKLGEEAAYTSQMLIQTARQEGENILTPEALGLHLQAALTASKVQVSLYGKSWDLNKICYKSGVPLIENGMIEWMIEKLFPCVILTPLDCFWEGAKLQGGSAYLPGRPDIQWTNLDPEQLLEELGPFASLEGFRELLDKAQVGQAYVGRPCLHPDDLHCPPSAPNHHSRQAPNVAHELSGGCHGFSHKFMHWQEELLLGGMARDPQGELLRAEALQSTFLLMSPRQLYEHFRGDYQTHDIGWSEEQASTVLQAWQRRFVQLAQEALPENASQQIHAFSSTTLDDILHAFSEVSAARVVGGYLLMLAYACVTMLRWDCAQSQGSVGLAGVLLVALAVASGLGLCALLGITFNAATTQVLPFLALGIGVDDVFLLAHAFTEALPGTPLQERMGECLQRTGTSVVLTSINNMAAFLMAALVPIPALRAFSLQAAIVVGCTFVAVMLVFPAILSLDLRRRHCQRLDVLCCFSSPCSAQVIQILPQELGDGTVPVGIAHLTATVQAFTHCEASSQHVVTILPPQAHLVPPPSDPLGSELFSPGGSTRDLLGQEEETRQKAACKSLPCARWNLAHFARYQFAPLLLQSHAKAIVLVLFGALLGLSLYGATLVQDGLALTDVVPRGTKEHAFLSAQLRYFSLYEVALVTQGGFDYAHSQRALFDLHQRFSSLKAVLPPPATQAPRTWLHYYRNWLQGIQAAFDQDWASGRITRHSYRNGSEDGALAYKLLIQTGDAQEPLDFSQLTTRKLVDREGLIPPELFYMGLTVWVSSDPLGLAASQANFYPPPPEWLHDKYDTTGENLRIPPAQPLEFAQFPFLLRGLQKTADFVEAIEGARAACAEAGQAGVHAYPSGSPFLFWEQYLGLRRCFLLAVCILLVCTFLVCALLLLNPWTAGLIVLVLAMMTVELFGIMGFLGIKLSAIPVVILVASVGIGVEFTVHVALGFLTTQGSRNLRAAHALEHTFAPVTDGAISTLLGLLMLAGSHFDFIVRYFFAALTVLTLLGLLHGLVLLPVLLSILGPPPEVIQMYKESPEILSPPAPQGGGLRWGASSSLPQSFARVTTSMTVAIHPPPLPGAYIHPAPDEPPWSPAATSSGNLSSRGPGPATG


Biological target: T1, human Ptch-2 (SEQ ID NO:2), …
Assay: Scatchard analysis of 125I-Shh displacement curves, 293 cells expressing Ptch-2

Row | Binder | Kd
1 | Dhh (SEQ ID NO:13) (ligand, also called Desert Hh; Desert hedgehog) not shown | 0.6 nM
2 | Ihh (SEQ ID NO:29) (ligand, also called Indian Hh) not shown | 0.4 nM
